The nature of one data set: in vitro. As to conditions: rat, plasma.
Data set [1] addresses T1, human APJ receptor (hAPJ) (human, UniProt P35414 1-380).
T1 sequence (looked up): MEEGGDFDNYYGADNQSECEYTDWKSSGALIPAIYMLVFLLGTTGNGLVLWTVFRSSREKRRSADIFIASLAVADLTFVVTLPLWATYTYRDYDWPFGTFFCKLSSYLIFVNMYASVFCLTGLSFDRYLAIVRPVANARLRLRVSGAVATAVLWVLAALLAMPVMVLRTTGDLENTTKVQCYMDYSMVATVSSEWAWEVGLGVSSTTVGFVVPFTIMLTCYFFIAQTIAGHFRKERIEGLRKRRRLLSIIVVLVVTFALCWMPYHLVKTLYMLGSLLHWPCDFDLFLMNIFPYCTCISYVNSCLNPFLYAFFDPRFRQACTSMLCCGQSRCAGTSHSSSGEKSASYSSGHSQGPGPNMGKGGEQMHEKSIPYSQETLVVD
Nature of the data set: cell-based or functional assay.

This note sets out measurements from US9908919B2, “Cyclic apelin derivatives for the treatment of heart failure” (priority 2013, dated 2018).

Where a SMILES comes first, the peptide text is derived from it. Bridges are numbered along the chain shown (N, C = ends). [ ]: non-standard residue; d: D form. pGlu = O=C1CC[C@@H](C(=O)O)N1; dNle = CCCC[C@@H](N)C(=O)O

Broadly, the half-life is the time needed for the level to fall by half in the phase considered. Read a high half-life as slow loss.

Protocol for in vitro: The calcium flux protocol described above was followed, with the following changes. The peptides were also incubated with 5% rat plasma (Bioreclamation # [sequence]-M, Na Heparin-treated). Readings were taken at time points t0 and t24 hrs, after incubation in a 37° C. tissue culture incubator. Peptide plasma half-life in minutes was estimated by calculating the following: • 1) LN((EC50 at t0)/(EC50 at t24 hrs)), • 2) Calculate slope of value above and • 3) t112=0.693/(slope^2).

As to `CCCC[C@H](NC(=O)[C@@H]1CCCN1C(=O)CNC(=O)[C@H](CCCCN)NC(=O)[C@H](Cc1c[nH]cn1)NC(=O)[C@@H]1CSSC[C@H](NC(=O)[C@H](CCCNC(=N)N)NC(=O)[C@@H]2CCC(=O)N2)C(=O)N[C@@H](CCCNC(=N)N)C(=O)N[C@@H](CC(C)C)C(=O)N1)C(=O)N1CCC[C@H]1C(=O)N[C@@H](Cc1ccccc1)C(=O)O` [Example 1, pE-R-C*-R-L-C*-H-K-G-P-Nle-P-F-OH] (HELM PEPTIDE1{[Glp].R.C.R.L.C.H.K.G.P.[Nle].P.F}$PEPTIDE1,PEPTIDE1,3:R3-6:R3$$$V2.0), the half-life in the data set “in vitro” turned out to be 4 min.
Turning to `CCCC[C@@H](NC(=O)[C@@H]1CCCN1C(=O)CNC(=O)[C@H](CCCCN)NC(=O)[C@H](Cc1c[nH]cn1)NC(=O)[C@@H]1CSSC[C@H](NC(=O)[C@H](CCCNC(=N)N)NC(=O)[C@@H]2CCC(=O)N2)C(=O)N[C@@H](CCCNC(=N)N)C(=O)N[C@@H](CC(C)C)C(=O)N1)C(=O)N[C@H](C)C(=O)N[C@H](Cc1ccccc1)C(=O)O` [Example 2, pE-R-C*-R-L-C*-H-K-G-P-(D-Nle)-a-f-OH] (HELM PEPTIDE1{[Glp].R.C.R.L.C.H.K.G.P.[CCCC[C@@H](N[*:1])C(=O)[*:2]].[dA].[dF]}$PEPTIDE1,PEPTIDE1,3:R3-6:R3$$$V2.0), the half-life in the data set “in vitro” was 225 min.
Still for that read-out and setting: the value for `CCCC[C@@H](NC(=O)[C@@H]1CCCN1C(=O)CNC(=O)[C@H](CCCCN)NC(=O)[C@H](Cc1c[nH]cn1)NC(=O)[C@@H]1CSSC[C@H](NC(=O)[C@H](CCCNC(=N)N)NC(=O)[C@@H]2CCC(=O)N2)C(=O)N[C@@H](CCCNC(=N)N)C(=O)N[C@@H](CC(C)C)C(=O)N1)C(=O)NCCc1ccccc1` [Example 3, pE-R-C*-R-L-C*-H-K-G-P-(D-Nle)-NH(Phenethyl)] (HELM PEPTIDE1{[Glp].R.C.R.L.C.H.K.G.P.[CCCC[C@@H](N[*:1])C(=O)[*:2]].[c1ccc(CCN[*:1])cc1]}$PEPTIDE1,PEPTIDE1,3:R3-6:R3$$$V2.0) was 1200 min.
The same measure, in the same setting: under `CC(C)C[C@@H]1NC(=O)[C@H](CCCNC(=N)N)NC(=O)[C@H](NC(=O)[C@H](CCCNC(=N)N)NC(=O)[C@@H]2CCC(=O)N2)CSSC[C@@H](C(=O)N[C@@H](Cc2c[nH]cn2)C(=O)N[C@@H](CCCCN)C(=O)NCC(=O)N2CCC[C@H]2C(=O)N[C@H](Cc2ccccc2)C(=O)N[C@H](C)C(=O)N[C@H](Cc2ccccc2)C(=O)O)NC1=O` [Example 4, pE-R-c*-R-L-C*-H-K-G-P-f-a-f-OH] (HELM PEPTIDE1{[Glp].R.[dC].R.L.C.H.K.G.P.[dF].[dA].[dF]}$PEPTIDE1,PEPTIDE1,3:R3-6:R3$$$V2.0) stands 86 min; under `CCCC[C@H](NC(=O)[C@@H]1CCCN1C(=O)[C@@H]1CSSC[C@H](NC(=O)[C@H](CC(C)C)NC(=O)[C@H](CCCNC(=N)N)NC(=O)[C@@H]2CCCN2C(=O)[C@H](CCCNC(=N)N)NC(=O)[C@@H]2CCC(=O)N2)C(=O)N[C@@H](Cc2c[nH]cn2)C(=O)N[C@@H](CCCCN)C(=O)N1)C(=O)N1CCC[C@H]1C(=O)N[C@@H](Cc1ccccc1)C(=O)O` [Example 5, pE-R-P-R-L-C*-H-K-C*-P-Nle-P-F-OH] (HELM PEPTIDE1{[Glp].R.P.R.L.C.H.K.C.P.[Nle].P.F}$PEPTIDE1,PEPTIDE1,6:R3-9:R3$$$V2.0), 16 min.
Molecule `CC(C)C[C@H](NC(=O)[C@H](CCCNC(=N)N)NC(=O)[C@@H]1CCCN1C(=O)[C@H](CCCNC(=N)N)NC(=O)[C@@H]1CCC(=O)N1)C(=O)N[C@@H]1CSSC[C@@H](C(=O)N2CCC[C@H]2C(=O)N[C@H](Cc2ccccc2)C(=O)N[C@H](C)C(=O)N[C@H](Cc2ccccc2)C(=O)O)NC(=O)[C@H](CCCCN)NC(=O)[C@H](Cc2c[nH]cn2)NC1=O` [Example 6, pE-R-P-R-L-c*-H-K-C*-P-f-a-f-OH] (HELM PEPTIDE1{[Glp].R.P.R.L.[dC].H.K.C.P.[dF].[dA].[dF]}$PEPTIDE1,PEPTIDE1,6:R3-9:R3$$$V2.0) came in with a half-life in “in vitro” of 50 min.
Same read-out and setting: the value for `CCCC[C@@H](NC(=O)[C@@H]1CCCN1C(=O)[C@@H]1CSSCC[C@@H](NC(=O)[C@H](CC(C)C)NC(=O)[C@H](CCCNC(=N)N)NC(=O)[C@@H]2CCCN2C(=O)[C@H](CCCNC(=N)N)NC(=O)[C@@H]2CCC(=O)N2)C(=O)N[C@@H](Cc2c[nH]cn2)C(=O)N[C@@H](CCCCN)C(=O)N1)C(=O)N1CCC[C@@H]1C(=O)N[C@H](Cc1ccccc1)C(=O)O` [Example 7, pE-R-P-R-L-(D-hC)*-H-K-C*-P-(D-Nle)-p-f-OH] (HELM PEPTIDE1{[Glp].R.P.R.L.[O=C([C@@H](CCS[*:3])N[*:1])[*:2]].H.K.C.P.[CCCC[C@@H](N[*:1])C(=O)[*:2]].[dP].[dF]}$PEPTIDE1,PEPTIDE1,6:R3-9:R3$$$V2.0) was 52 min.

B1: Example 8: pE-R-P-R-L-C*-H-K-G-P-Nle-P-C*-OH (peptide)
peptide: ERPRLCHKGPLPC
HELM: PEPTIDE1{[Glp].R.P.R.L.C.H.K.G.P.[Nle].P.C}$PEPTIDE1,PEPTIDE1,6:R3-13:R3$$$V2.0
SMILES: CCCC[C@@H]1NC(=O)[C@@H]2CCCN2C(=O)CNC(=O)[C@H](CCCCN)NC(=O)[C@H](Cc2c[nH]cn2)NC(=O)[C@@H](NC(=O)[C@H](CC(C)C)NC(=O)[C@H](CCCNC(=N)N)NC(=O)[C@@H]2CCCN2C(=O)[C@H](CCCNC(=N)N)NC(=O)[C@@H]2CCC(=O)N2)CSSC[C@@H](C(=O)O)NC(=O)[C@@H]2CCCN2C1=O
With B1, the “hAPJ Ca^2+ Flux EC50” value in data set [1] worked out at 43.7 nM.

B2: Example 1: pE-R-C*-R-L-C*-H-K-G-P-Nle-P-F-OH (Disulfide C3-C6) (peptide)
peptide: ERCRLCHKGPLPF
HELM: PEPTIDE1{[Glp].R.C.R.L.C.H.K.G.P.[Nle].P.F}$PEPTIDE1,PEPTIDE1,3:R3-6:R3$$$V2.0
SMILES: CCCC[C@H](NC(=O)[C@@H]1CCCN1C(=O)CNC(=O)[C@H](CCCCN)NC(=O)[C@H](Cc1c[nH]cn1)NC(=O)[C@@H]1CSSC[C@H](NC(=O)[C@H](CCCNC(=N)N)NC(=O)[C@@H]2CCC(=O)N2)C(=O)N[C@@H](CCCNC(=N)N)C(=O)N[C@@H](CC(C)C)C(=O)N1)C(=O)N1CCC[C@H]1C(=O)N[C@@H](Cc1ccccc1)C(=O)O
B2: the “hAPJ Ca^2+ Flux EC50” value in data set [1] worked out at 3.5 nM.

B3: Example 2: pE-R-C*-R-L-C*-H-K-G-P-(D-Nle)-a-f-OH (Disulfide C3-C6) (peptide)
peptide: ERCRLCHKGPLAF
HELM: PEPTIDE1{[Glp].R.C.R.L.C.H.K.G.P.[CCCC[C@@H](N[*:1])C(=O)[*:2]].[dA].[dF]}$PEPTIDE1,PEPTIDE1,3:R3-6:R3$$$V2.0
SMILES: CCCC[C@@H](NC(=O)[C@@H]1CCCN1C(=O)CNC(=O)[C@H](CCCCN)NC(=O)[C@H](Cc1c[nH]cn1)NC(=O)[C@@H]1CSSC[C@H](NC(=O)[C@H](CCCNC(=N)N)NC(=O)[C@@H]2CCC(=O)N2)C(=O)N[C@@H](CCCNC(=N)N)C(=O)N[C@@H](CC(C)C)C(=O)N1)C(=O)N[C@H](C)C(=O)N[C@H](Cc1ccccc1)C(=O)O
B3: the “hAPJ Ca^2+ Flux EC50” value in data set [1] is 77 nM.

B4: Example 7: pE-R-P-R-L-(D-hC)*-H-K-C*-P-(D-Nle)-p-f-OH (peptide)
peptide: ERPRLCHKCPLPF
HELM: PEPTIDE1{[Glp].R.P.R.L.[O=C([C@@H](CCS[*:3])N[*:1])[*:2]].H.K.C.P.[CCCC[C@@H](N[*:1])C(=O)[*:2]].[dP].[dF]}$PEPTIDE1,PEPTIDE1,6:R3-9:R3$$$V2.0
SMILES: CCCC[C@@H](NC(=O)[C@@H]1CCCN1C(=O)[C@@H]1CSSCC[C@@H](NC(=O)[C@H](CC(C)C)NC(=O)[C@H](CCCNC(=N)N)NC(=O)[C@@H]2CCCN2C(=O)[C@H](CCCNC(=N)N)NC(=O)[C@@H]2CCC(=O)N2)C(=O)N[C@@H](Cc2c[nH]cn2)C(=O)N[C@@H](CCCCN)C(=O)N1)C(=O)N1CCC[C@@H]1C(=O)N[C@H](Cc1ccccc1)C(=O)O
On to B4, for which the “hAPJ Ca^2+ Flux EC50” value in data set [1] is 9.7 nM.

B5: Example 5: pE-R-P-R-L-C*-H-K-C*-P-Nle-P-F-OH (Disulfide C6-C9) (peptide)
peptide: ERPRLCHKCPLPF
HELM: PEPTIDE1{[Glp].R.P.R.L.C.H.K.C.P.[Nle].P.F}$PEPTIDE1,PEPTIDE1,6:R3-9:R3$$$V2.0
SMILES: CCCC[C@H](NC(=O)[C@@H]1CCCN1C(=O)[C@@H]1CSSC[C@H](NC(=O)[C@H](CC(C)C)NC(=O)[C@H](CCCNC(=N)N)NC(=O)[C@@H]2CCCN2C(=O)[C@H](CCCNC(=N)N)NC(=O)[C@@H]2CCC(=O)N2)C(=O)N[C@@H](Cc2c[nH]cn2)C(=O)N[C@@H](CCCCN)C(=O)N1)C(=O)N1CCC[C@H]1C(=O)N[C@@H](Cc1ccccc1)C(=O)O
Consider B5, for which, in data set [1], the “hAPJ Ca^2+ Flux EC50” value is 6.9 nM.

B6: Example 3: pE-R-C*-R-L-C*-H-K-G-P-(D-Nle)-NH(Phenethyl) (Disulfide C3-C6) (peptide)
peptide: [pGlu]RCRLCHKGP[dNle]-{NH‑phenethyl}
modifications: disulfide 3-6
Turning to B6, in data set [1], the “hAPJ Ca^2+ Flux EC50” value was found to be 871 nM.

B7: Example 6: pE-R-P-R-L-c*-H-K-C*-P-f-a-f-OH (peptide)
peptide: ERPRLCHKCPFAF
HELM: PEPTIDE1{[Glp].R.P.R.L.[dC].H.K.C.P.[dF].[dA].[dF]}$PEPTIDE1,PEPTIDE1,6:R3-9:R3$$$V2.0
SMILES: CC(C)C[C@H](NC(=O)[C@H](CCCNC(=N)N)NC(=O)[C@@H]1CCCN1C(=O)[C@H](CCCNC(=N)N)NC(=O)[C@@H]1CCC(=O)N1)C(=O)N[C@@H]1CSSC[C@@H](C(=O)N2CCC[C@H]2C(=O)N[C@H](Cc2ccccc2)C(=O)N[C@H](C)C(=O)N[C@H](Cc2ccccc2)C(=O)O)NC(=O)[C@H](CCCCN)NC(=O)[C@H](Cc2c[nH]cn2)NC1=O
Turning to B7, the “hAPJ Ca^2+ Flux EC50” value in data set [1] came to 12.3 nM.

B8: Example 4: pE-R-c*-R-L-C*-H-K-G-P-f-a-f-OH (Disulfide C3-C6) (peptide)
peptide: ERCRLCHKGPFAF
HELM: PEPTIDE1{[Glp].R.[dC].R.L.C.H.K.G.P.[dF].[dA].[dF]}$PEPTIDE1,PEPTIDE1,3:R3-6:R3$$$V2.0
SMILES: CC(C)C[C@@H]1NC(=O)[C@H](CCCNC(=N)N)NC(=O)[C@H](NC(=O)[C@H](CCCNC(=N)N)NC(=O)[C@@H]2CCC(=O)N2)CSSC[C@@H](C(=O)N[C@@H](Cc2c[nH]cn2)C(=O)N[C@@H](CCCCN)C(=O)NCC(=O)N2CCC[C@H]2C(=O)N[C@H](Cc2ccccc2)C(=O)N[C@H](C)C(=O)N[C@H](Cc2ccccc2)C(=O)O)NC1=O
On to B8, for which the “hAPJ Ca^2+ Flux EC50” value in data set [1] was found to be 496 nM.
